The numbers were not newly measured in PMC8335159, which cites them from elsewhere.

The target in data set [1] is VWF peptide 1660-1668 (Homo sapiens) (UniProt P04275).
Data set [2] deals with TIMP-3 cyclic peptide 61-70 (Homo sapiens).
The target in data set [3] is TIMP-3 cyclic peptide 62-68 (Homo sapiens).
Data set [4] has as its target TIMP-3 cyclic peptide 60-70 (Homo sapiens).

The Ki is the equilibrium dissociation constant of an inhibitor or competing ligand from its target. As to ADAMTS-13 (from UniProt Q76LX8), the Ki in data set [1] is 1 µM.

The term Kd denotes the free concentration of one partner at which half of the binding sites on the other are occupied at equilibrium, for simple one-to-one binding. In the case of ADAM-17 (from UniProt P78536), the dissociation constant Kd is 3.7 µM in data set [2], 25 µM in data set [3] and 18 µM in data set [4].
